Assay [1] has as its target T1, human MCH receptor expressed from the open reading frame cDNA SEQ. ID. NO. 1 in 293-AEQ17 cells (human, UniProt Q99705 1-353). Nature of the assay: cell-based or functional assay.
Assay [2] concerns the target T1, human MCH receptor expressed from the …. Nature of the assay: cell-based or functional assay. This is another data set of the same source.
The target is the same in assay [3]. Nature of the assay: cell-based or functional assay. This is another data set of the same source.
Assay [4] has the same target. Nature of the assay: cell-based or functional assay. The source holds these as a separate data set.
Assay [5] deals with T2, human MCH receptor (membranes from a stable CHO or HEK-293 cell line) (human, UniProt Q99705 1-353).
T2 construct: whole, on cells; also called cloned human MCH receptor (CHO clone)
Nature of the assay: competition vs [125I]-human MCH (Phe13,Tyr19); human MCH receptor cell membranes (Example 3).

In assay [6] the target is T1, human MCH receptor expressed from the …. Nature of the assay: cell-based or functional assay. The source holds these as a separate data set.
The target in assay [7] is T2, human MCH receptor (membranes from a …). Nature of the assay: competition vs [125I]-human MCH (Phe13,Tyr19); human MCH receptor cell membranes (Example 3). This is another data set of the same source.
For assay [8], the target named is T1, human MCH receptor expressed from the …. Nature of the assay: cell-based or functional assay. This is another data set of the same source.

Read-outs that look alike come from different tables or passages of the source. Bridges are numbered along the chain shown (N, C = ends). Where no end group is shown, it is not given here. A value given as a limit tells only on which side of the number the result lay.

T2 sequence (Q99705 whole entry): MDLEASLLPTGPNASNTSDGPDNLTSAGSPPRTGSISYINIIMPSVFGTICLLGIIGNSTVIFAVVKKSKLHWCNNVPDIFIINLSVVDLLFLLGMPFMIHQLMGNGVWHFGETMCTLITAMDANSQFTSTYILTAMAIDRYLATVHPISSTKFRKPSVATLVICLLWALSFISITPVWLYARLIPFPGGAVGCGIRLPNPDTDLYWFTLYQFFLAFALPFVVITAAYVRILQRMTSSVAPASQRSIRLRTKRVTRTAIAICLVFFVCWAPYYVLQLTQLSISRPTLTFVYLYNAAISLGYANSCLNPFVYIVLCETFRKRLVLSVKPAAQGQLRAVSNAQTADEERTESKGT
T1 sequence (Q99705 whole entry): as above

Regarding DFDXLRCXLGRVYRPCWQV (norleucine (Nle) at positions 4 and 8; cyclization (S-S) between the two Cys), the “% Activation at 10 µM” value in assay [1] came to 65.9%.

B1: MCH analog SEQ. ID. NO. 65 (position 13: (2′)Nal) (peptide)
peptide: RCMLGRVXRPC
modifications: (2′)-naphthylalanine at position 13; N-terminal acetyl, C-terminal amide, Cys-Cys disulfide as in SEQ. ID. NO. 7
In turn, B1 gave an Activation % in assay [2] of 105%.

B2: MCH analog SEQ. ID. NO. 29 (N-Me-Arg^14) (peptide)
peptide: RCMLGRVYXPC
modifications: N-methyl-arginine at position 14; N-terminal acetyl, C-terminal amide, Cys-Cys disulfide as in SEQ. ID. NO. 7
On to B2, for which the “EC50” value in assay [3] is more than 1000 nM.

B3: MCH analog SEQ. ID. NO. 24 (D-Cys^16) (peptide)
peptide: RCMLGRVYRPX
modifications: D-Cys^16; N-terminal acetyl, C-terminal amide, Cys-Cys disulfide as in SEQ. ID. NO. 7
Take B3: the Activation % in assay [4] was 76%.

B4: MCH analog SEQ. ID. NO. 31 (position 6: Ac-Ala) (peptide)
peptide: Ac-ACMLGRVYRPC-NH2
modifications: disulfide 2-11
SMILES: CSCC[C@@H]1NC(=O)[C@@H](NC(=O)[C@H](C)NC(C)=O)CSSC[C@@H](C(N)=O)NC(=O)[C@@H]2CCCN2C(=O)[C@H](CCCNC(=N)N)NC(=O)[C@H](Cc2ccc(O)cc2)NC(=O)[C@H](C(C)C)NC(=O)[C@H](CCCNC(=N)N)NC(=O)CNC(=O)[C@H](CC(C)C)NC1=O
notes: ID; NO; 7 peptide; MCH position numbering
In assay [5], B4 yielded an IC50 of 27 nM. Also, in assay [6], the Activation % stood at 135% and the “EC50” value stood at 114 nM.

B5: MCH analog SEQ. ID. NO. 53 (position 10: Lys) (peptide)
peptide: RCMLKRVYRPC
modifications: N-terminal acetyl, C-terminal amide, Cys-Cys disulfide as in SEQ. ID. NO. 7
notes: as for B4
The molecule B5 yielded an IC50 in assay [7] of 110 nM. Also, in assay [8], the Activation % came out at 25% and the “EC50” value was 4500 nM.

B6: MCH analog SEQ. ID. NO. 52 (position 10: Ser) (peptide)
peptide: RCMLSRVYRPC
modifications: N-terminal acetyl, C-terminal amide, Cys-Cys disulfide as in SEQ. ID. NO. 7
notes: as for B4
With B6, the IC50 in assay [7] turned out to be 0.32 nM. Besides, in assay [8], the Activation % worked out at 104% and the concentration giving a half-maximal response (EC50) was 65 nM.

B7: MCH analog SEQ. ID. NO. 35 (position 6: Ac-Ser) (peptide)
peptide: SCMLGRVYRPC
modifications: Ac-Ser at position 6 (N-terminal acetyl); C-terminal amide, Cys-Cys disulfide as in SEQ. ID. NO. 7
notes: as for B4
In assay [5], B7 showed an IC50 of 4.5 nM. Further, in assay [6], the Activation % came to 120% and the 50% effective concentration (EC50) is 207 nM.

B8: MCH analog SEQ. ID. NO. 54 (position 10: Glu) (peptide)
peptide: RCMLERVYRPC
modifications: N-terminal acetyl, C-terminal amide, Cys-Cys disulfide as in SEQ. ID. NO. 7
notes: as for B4
B8 returned a half-inhibitory concentration (IC50) in assay [7] of 190 nM. Also, in assay [8], the Activation % turned out to be 12% and the “EC50” value is more than 10000 nM.

B9: MCH analog SEQ. ID. NO. 50 (position 10: Pro) (peptide)
peptide: RCMLPRVYRPC
modifications: N-terminal acetyl, C-terminal amide, Cys-Cys disulfide as in SEQ. ID. NO. 7
notes: as for B4
Take B9: the IC50 in assay [7] was 700 nM. Further, in assay [8], the Activation % was found to be 4% and the “EC50” value turned out to be 519 nM.

B10: MCH analog SEQ. ID. NO. 47 (position 10: Ala) (peptide)
peptide: RCMLARVYRPC
modifications: N-terminal acetyl, C-terminal amide, Cys-Cys disulfide as in SEQ. ID. NO. 7
notes: as for B4
B10: in assay [7], the IC50 was determined as 0.59 nM. In assay [8], the Activation % was determined as 104% and the “EC50” value worked out at 31 nM.

B11: MCH analog SEQ. ID. NO. 33 (position 6: Ac-Pro) (peptide)
peptide: PCMLGRVYRPC
modifications: Ac-Pro at position 6 (N-terminal acetyl); C-terminal amide, Cys-Cys disulfide as in SEQ. ID. NO. 7
notes: as for B4
B11 came in with an IC50 in assay [5] of 3.4 nM. Also, in assay [6], the Activation % was 133% and the response was half-maximal at 59 nM (EC50).

B12: MCH analog SEQ. ID. NO. 51 (position 10: Asn) (peptide)
peptide: RCMLNRVYRPC
modifications: N-terminal acetyl, C-terminal amide, Cys-Cys disulfide as in SEQ. ID. NO. 7
notes: as for B4
Consider B12, for which the IC50 in assay [7] worked out at 0.23 nM. Moreover, in assay [8], the Activation % turned out to be 106% and a half-maximal effect (EC50) was put at 23 nM.

B13: MCH analog SEQ. ID. NO. 34 (position 6: Ac-Asn) (peptide)
peptide: NCMLGRVYRPC
modifications: Ac-Asn at position 6 (N-terminal acetyl); C-terminal amide, Cys-Cys disulfide as in SEQ. ID. NO. 7
notes: as for B4
For the molecule B13, the IC50 in assay [5] was 2.6 nM. Further, in assay [6], the Activation % amounted to 96% and a half-maximal effect (EC50) was put at 150 nM.

B14: MCH analog SEQ. ID. NO. 48 (position 10: Leu) (peptide)
peptide: RCMLLRVYRPC
modifications: N-terminal acetyl, C-terminal amide, Cys-Cys disulfide as in SEQ. ID. NO. 7
notes: as for B4
In assay [7], B14 yielded a half-inhibitory concentration (IC50) of 0.06 nM. Also, in assay [8], the Activation % is 106% and a half-maximal effect (EC50) was put at 23 nM.

B15: MCH analog SEQ. ID. NO. 36 (position 6: Ac-Glu) (peptide)
peptide: ECMLGRVYRPC
modifications: Ac-Glu at position 6 (N-terminal acetyl); C-terminal amide, Cys-Cys disulfide as in SEQ. ID. NO. 7
notes: as for B4
Turning to B15, the concentration for half-maximal inhibition (IC50) in assay [5] came out at 19 nM. Also, in assay [6], the Activation % came to 113% and it took 935 nM to reach a half-maximal effect (EC50).

B16: MCH analog SEQ. ID. NO. 39 (position 6: Arg) (peptide)
peptide: RCMLGRVYRPC-NH2
modifications: disulfide 2-11 (inferred)
notes: as for B4
In turn, B16 displayed a half-maximal inhibitory concentration (IC50) in assay [5] of 0.13 nM. In assay [6], the Activation % was found to be 106% and the “EC50” value was determined as 14 nM.

B17: MCH analog SEQ. ID. NO. 16 (D-Cys^7) (peptide)
peptide: RXMLGRVYRPC
modifications: D-Cys^7; N-terminal acetyl, C-terminal amide, Cys-Cys disulfide as in SEQ. ID. NO. 7
In assay [4], B17 returned an Activation % of 34%.

B18: MCH analog SEQ. ID. NO. 28 (N-Me-Arg^11) (peptide)
peptide: RCMLGXVYRPC
modifications: N-methyl-arginine at position 11; N-terminal acetyl, C-terminal amide, Cys-Cys disulfide as in SEQ. ID. NO. 7
In turn, B18 registered an Activation % in assay [3] of 110%.

B19: MCH analog SEQ. ID. NO. 42 (position 6: Ac-D-Nle) (peptide)
peptide: XCMLGRVYRPC
modifications: Ac-D-Nle at position 6; C-terminal amide, Cys-Cys disulfide as in SEQ. ID. NO. 7
notes: as for B4
B19 came in with an IC50 in assay [5] of 1.2 nM. Further, in assay [6], the Activation % worked out at 97% and the “EC50” value was 110 nM.

Broadly, the EC50 is the concentration that produces a half-maximal response. A low value points to greater potency. By IC50 is commonly meant the concentration that gives 50% inhibition. Read a high IC50 as a need for much substance.

Values taken from patent US20030105278A1 (MERK, published 2003).
